Data on six molecules can be found in patent US20070086956A1 (Bayer, published 2007).

Like-named read-outs stand apart in the source and are kept apart here. Where no end group is shown, it is not given here.

For assay [1], the target named is T1, human plasmin (human, UniProt P00747 97-810, limits assumed). The assay can be described thus: enzyme inhibition, human plasmin 50 pM.
Assay [2] has as its target T2, Factor XIa (human, UniProt P03951 19-625).
T2 construct: also called FXIa; Human FXIa
In words: enzyme inhibition, Factor XIa 0.1 nM.

The target in assay [3] is T3, Bovine chymotrypsin (bovine, UniProt P00766 1-13; P00766 16-146; P00766 149-245). The assay can be described thus: enzyme inhibition, bovine chymotrypsin 5 nM.
For assay [4], the target named is T4, human tissue kallikrein (human, UniProt P06870 25-262). In words: enzyme inhibition, human tissue kallikrein.
T4 sequence (P06870 25-262 limits assumed): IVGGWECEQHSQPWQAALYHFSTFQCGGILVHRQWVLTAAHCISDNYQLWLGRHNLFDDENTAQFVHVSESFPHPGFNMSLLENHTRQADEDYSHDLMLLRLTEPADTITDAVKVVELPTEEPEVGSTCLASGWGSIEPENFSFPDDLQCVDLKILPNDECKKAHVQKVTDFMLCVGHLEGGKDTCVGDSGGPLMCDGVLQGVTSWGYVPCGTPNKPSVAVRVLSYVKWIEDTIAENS
For assay [5], the target named is T4, human tissue kallikrein. In words: enzyme inhibition, human tissue kallikrein 0.35 nM, substrate PFR-AMC.
Assay [6] has as its target T1, human plasmin. The assay can be described thus: enzyme inhibition, human plasmin 50 pM. This is another data set of the same source.
Assay [7] concerns the target T3, Bovine chymotrypsin. In words: enzyme inhibition, chymotrypsin 5 nM, substrate AAPF-pNA.
For assay [8], the target named is T1, human plasmin. The assay can be described thus: enzyme inhibition, human plasmin 50 pM, substrate GPK-AMC.
Assay [9] concerns the target T5, human neutrophil elastase (human, UniProt P08246 30-247, limits assumed).
T5 sequence (looked up): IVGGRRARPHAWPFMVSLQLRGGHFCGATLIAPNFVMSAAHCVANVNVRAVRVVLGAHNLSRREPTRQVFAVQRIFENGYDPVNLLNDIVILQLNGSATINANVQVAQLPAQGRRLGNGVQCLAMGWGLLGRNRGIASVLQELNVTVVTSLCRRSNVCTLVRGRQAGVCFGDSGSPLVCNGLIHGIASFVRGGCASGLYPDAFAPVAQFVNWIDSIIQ
The assay can be described thus: enzyme inhibition, elastase. The protocol:
(§1) Ki values were determined from Dixon plots of the form 1/V versus performed at two different substrate concentrations (Dixon et al., 1979).

A further assay has as its target human urokinase (human, UniProt P00749 21-431, limits assumed). In words: enzyme inhibition, urokinase, substrate GGR-AMC.
The target of assay [10] is T6, human plasma kallikrein (human, UniProt P03952 20-638). The assay can be described thus: enzyme inhibition, human plasma kallikrein […] nM.
T6 sequence (P03952 20-638 limits assumed): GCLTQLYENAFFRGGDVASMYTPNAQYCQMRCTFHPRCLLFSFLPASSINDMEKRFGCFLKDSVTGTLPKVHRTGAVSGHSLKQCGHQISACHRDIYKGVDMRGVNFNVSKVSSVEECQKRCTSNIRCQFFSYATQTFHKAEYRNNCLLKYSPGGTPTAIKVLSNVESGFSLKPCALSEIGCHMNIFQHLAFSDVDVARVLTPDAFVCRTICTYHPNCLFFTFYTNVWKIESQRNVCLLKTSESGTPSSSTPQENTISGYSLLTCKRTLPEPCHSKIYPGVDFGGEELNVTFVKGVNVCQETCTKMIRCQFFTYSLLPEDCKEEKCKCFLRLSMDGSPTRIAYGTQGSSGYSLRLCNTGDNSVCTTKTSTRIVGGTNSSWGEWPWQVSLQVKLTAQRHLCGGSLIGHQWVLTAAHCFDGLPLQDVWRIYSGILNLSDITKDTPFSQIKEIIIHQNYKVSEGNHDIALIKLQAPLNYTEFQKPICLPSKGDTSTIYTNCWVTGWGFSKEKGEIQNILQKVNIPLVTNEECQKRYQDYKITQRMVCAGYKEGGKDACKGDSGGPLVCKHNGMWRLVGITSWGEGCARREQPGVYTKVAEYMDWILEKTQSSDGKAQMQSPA
Assay [11] has as its target T2, Factor XIa. The assay can be described thus: enzyme inhibition, factor XIa 0.1 nM, substrate Boc-Glu(OBzl)-Ala-Arg-AMC.
Assay [12] addresses T5, human neutrophil elastase. The assay can be described thus: enzyme inhibition (Dixon plot), human neutrophil elastase 19 nM, substrate AAPM-AMC. The method, then: as §1
For assay [13], the target named is T7, human factor Xa (human, UniProt P00742 41-179; P00742 235-488, limits assumed). In words: enzyme inhibition, factor Xa 0.87 nM, substrate LGR-AMC.
T7 sequence (P00742 41-179 limits assumed, chain 1 of 2): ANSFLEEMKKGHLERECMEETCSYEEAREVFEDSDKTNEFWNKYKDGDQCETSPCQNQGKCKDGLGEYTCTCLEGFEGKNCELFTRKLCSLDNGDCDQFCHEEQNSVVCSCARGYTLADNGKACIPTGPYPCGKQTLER
T7 sequence (P00742 235-488 limits assumed, chain 2 of 2): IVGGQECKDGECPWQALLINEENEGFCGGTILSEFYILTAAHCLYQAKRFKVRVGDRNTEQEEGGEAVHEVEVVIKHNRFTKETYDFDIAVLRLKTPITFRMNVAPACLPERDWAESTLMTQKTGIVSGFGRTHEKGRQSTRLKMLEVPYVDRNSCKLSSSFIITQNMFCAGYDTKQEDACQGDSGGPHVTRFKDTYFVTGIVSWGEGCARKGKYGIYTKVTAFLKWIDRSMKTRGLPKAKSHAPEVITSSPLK
In assay [14] the target is T6, human plasma kallikrein. The assay can be described thus: enzyme inhibition, plasma kallikrein (apparent Ki).
For assay [15], the target named is T1, human plasmin. In words: enzyme inhibition, human plasmin 50 pM. This is another data set of the same source.
Assay [16] deals with T8, bovine trypsin (type III) (bovine, UniProt P00760 24-246). In words: enzyme inhibition, trypsin 48.5 pM.
T8 sequence (P00760 24-246): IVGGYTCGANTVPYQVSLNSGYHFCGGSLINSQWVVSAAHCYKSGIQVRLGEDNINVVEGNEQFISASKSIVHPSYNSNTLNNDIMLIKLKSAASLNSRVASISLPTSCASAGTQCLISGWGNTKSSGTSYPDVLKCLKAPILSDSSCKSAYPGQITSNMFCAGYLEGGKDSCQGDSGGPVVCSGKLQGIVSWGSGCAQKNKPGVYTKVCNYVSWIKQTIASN
Assay [17] deals with T7, human factor Xa. The assay can be described thus: enzyme inhibition, factor Xa 0.87 nM.
The target in assay [18] is T4, human tissue kallikrein. In words: enzyme inhibition, human tissue kallikrein 0.35 nM, substrate PFR-AMC. The source holds these as a separate data set.
Assay [19] deals with T9, bovine pancreatic kallikrein (bovine).
T9 construct: also called kallikrein-sepharose
In words: enzyme inhibition, bovine pancreatic kallikrein 100 pM.

A further assay has as its target T10, Tissue Factor VIIa.
T10 construct: also called TF/FVIIa
The assay can be described thus: enzyme inhibition, method not described.

For assay [20], the target named is tissue plasminogen activator (tPA), single chain form from human melanoma cell culture (human, UniProt P00750 36-562, limits assumed). The assay can be described thus: enzyme inhibition, tPA 7.5 nM, chromogenic substrate, A405. The protocol: Inhibition of tissue plasminogen activator (tPA) was also determined as follows: tPA (single chain form from human melanoma cell culture from Sigma Chemical Co, St Louis, Mo.) was pre-incubated with inhibitor for 2 hr at room temperature in 20 mM Tris buffer pH 7.2 containing 150 mM NaCl, and 0.02% sodium azide. […] Formation of p-Nitroaniline was determined from the A405 nm measured following incubation at 37 C for 2 hr.
tissue plasminogen activator (tPA), single chain form from human melanoma cell culture, sequence (P00750 36-562 limits assumed): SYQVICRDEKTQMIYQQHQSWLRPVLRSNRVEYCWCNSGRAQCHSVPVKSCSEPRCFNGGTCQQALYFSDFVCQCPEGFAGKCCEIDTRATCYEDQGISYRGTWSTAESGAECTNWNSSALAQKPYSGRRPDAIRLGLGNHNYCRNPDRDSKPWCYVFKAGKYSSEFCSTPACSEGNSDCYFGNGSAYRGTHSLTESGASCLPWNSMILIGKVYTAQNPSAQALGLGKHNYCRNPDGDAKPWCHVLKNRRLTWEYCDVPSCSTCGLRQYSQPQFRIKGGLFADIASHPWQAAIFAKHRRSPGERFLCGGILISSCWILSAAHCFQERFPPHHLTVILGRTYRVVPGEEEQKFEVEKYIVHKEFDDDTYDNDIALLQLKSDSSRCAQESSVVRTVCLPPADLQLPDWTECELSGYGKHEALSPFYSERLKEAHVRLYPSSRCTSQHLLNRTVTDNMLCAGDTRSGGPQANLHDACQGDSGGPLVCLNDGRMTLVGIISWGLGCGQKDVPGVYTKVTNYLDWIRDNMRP

The target of assay [21] is T2, Factor XIa. The assay can be described thus: enzyme inhibition, factor XIa 0.1 nM.
For assay [22], the target named is T8, bovine trypsin (type III). In words: enzyme inhibition, trypsin 48.5 pM. This is another data set of the same source.
For assay [23], the target named is T1, human plasmin. In words: enzyme inhibition, human plasmin 50 pM. The source holds these as a separate data set.
For assay [24], the target named is T6, human plasma kallikrein. In words: enzyme inhibition, human plasma kallikrein 2.5 nM.
In assay [25] the target is T6, human plasma kallikrein. The assay can be described thus: enzyme inhibition, human plasma kallikrein […] nM, substrate PFR-AMC.
Assay [26] addresses T2, Factor XIa. In words: enzyme inhibition, FXIa 0.1 nM, substrate Boc-Glu(OBzl)-Ala-Arg-AMC.
Assay [27] has as its target T4, human tissue kallikrein. The assay can be described thus: enzyme inhibition, human tissue kallikrein 0.35 nM, substrate PFR-AMC. This is another data set of the same source.
Assay [28] concerns the target T1, human plasmin. In words: enzyme inhibition, human plasmin 50 pM, substrate GPK-AMC. The source holds these as a separate data set.
In assay [29] the target is T9, bovine pancreatic kallikrein. The assay can be described thus: enzyme inhibition, bovine pancreatic kallikrein 92.0 pM.

T1 sequence (P00747 97-810 limits assumed): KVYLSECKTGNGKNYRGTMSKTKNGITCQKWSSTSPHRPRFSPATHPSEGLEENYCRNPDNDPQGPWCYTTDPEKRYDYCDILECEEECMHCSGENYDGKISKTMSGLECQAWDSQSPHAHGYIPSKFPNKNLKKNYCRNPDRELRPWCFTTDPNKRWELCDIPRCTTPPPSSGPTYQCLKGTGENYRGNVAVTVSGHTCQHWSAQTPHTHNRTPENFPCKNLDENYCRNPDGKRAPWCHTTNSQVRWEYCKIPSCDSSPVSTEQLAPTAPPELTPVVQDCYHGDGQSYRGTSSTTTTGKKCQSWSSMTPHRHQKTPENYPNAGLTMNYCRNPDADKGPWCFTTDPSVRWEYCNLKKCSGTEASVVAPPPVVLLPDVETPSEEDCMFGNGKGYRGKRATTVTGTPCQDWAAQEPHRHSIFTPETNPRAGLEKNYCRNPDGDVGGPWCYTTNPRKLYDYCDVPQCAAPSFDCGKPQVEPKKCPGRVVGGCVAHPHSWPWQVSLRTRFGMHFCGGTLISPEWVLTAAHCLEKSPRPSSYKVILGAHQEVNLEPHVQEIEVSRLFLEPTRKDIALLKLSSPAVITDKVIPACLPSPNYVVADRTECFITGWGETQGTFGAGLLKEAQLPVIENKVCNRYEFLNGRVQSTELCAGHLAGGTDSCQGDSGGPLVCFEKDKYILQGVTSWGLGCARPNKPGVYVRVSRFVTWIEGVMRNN

B1: synthetic placental bikunin (102-159) (other)
chain: YEEYCTANAVTGPCRASFPRWYFDVERNSCNNFIYGGCRGNKNSYRSEEACMLRCFRQ
modifications: disulfide (positions not given here)
notes: also called KID2
Take B1: the Ki turned out to be 1.8 nM in the assay with human plasmin [1]; 15 nM with Factor XIa [2]; 0.2 nM with Bovine chymotrypsin [3]; 0.13 nM with human tissue kallikrein [4]; 0.13 nM in the assay with human tissue kallikrein [5]; 1.8 nM with human plasmin [6]. In addition, the Ki with Bovine chymotrypsin [7] worked out at 0.24 nM; in the assay with human plasmin [8], 1.8 nM; in assay [9], 323 nM; in the assay with human urokinase, 11000 nM; with human plasma kallikrein [10], 0.7 nM; with Factor XIa [11], 15 nM. In addition, the Ki in assay [12] is 323 nM; in the assay with human factor Xa [13], 274 nM.

B2: placental bikunin (102-159) expressed in yeast strain SC101 (recombinant 2.4) and purified (other)
chain: B1 chain
notes: also called placental bikunin C-terminal domain
With B2, the Ki in the assay with human plasma kallikrein [14] was 0.35 nM.

B3: native human placental bikunin isolated from placenta (other)
chain: ADRERSIHDFCLVSKVVGRCRASMPRWWYNVTDGSCQLFVYGGCDGNSNNYLTKEECLKKCATVTENATGDLATSRNAADSSVPSAPRRQDSEDHSSDMFNYEEYCTANAVTGPCRASFPRWYFDVERNSCNNFIYGGCRGNKNSYRSEEACMLRCFRQQENPPLPLGSK
modifications: Asn 30 silent in sequencing, likely glycosylated
notes: Soluble protein purified from human placenta; A minor species started at residue 6; also called native Placental Bikunin (1-179)
Take B3: the Ki came out at 1.9 nM with human plasmin [15] and 0.13 nM in [16].

B4: placental bikunin (1-170) derived from a baculovirus/Sf9 expression system (other)
chain: B3 chain
notes: Both Kunitz domains, truncated before the transmembrane segment; N-terminus ADRER confirmed, so the signal peptide was removed; also called Recombinant Bikunin; recombinant placental bikunin (1-170)
As for B4, the Ki with human factor Xa [17] was 180 nM; with human tissue kallikrein [18], 0.04 nM; in assay [19], 0.12 nM; in the assay with Tissue Factor VIIa, 800 nM; in assay [20], less than 60 nM; with Factor XIa [21], 3 nM. Further, the values for the Ki (in [22]; with human plasmin [23]; with human plasma kallikrein [24]) were 0.064 nM, 0.23 nM and 0.18 nM, respectively.

B5: CHO expressed placental bikunin (1-170) (other)
chain: B3 chain
modifications: N-linked carbohydrate at Asn-30 and Asn-61 (so in the source)
notes: Glycosylated isoforms of 21-38 kDa; also called CHO Bikunin (1-170)
Take B5: the Ki with human plasma kallikrein [25] came to 0.5 nM; with Factor XIa [26], 1.9 nM; with human tissue kallikrein [27], 0.3 nM; with human plasmin [28], 0.2 nM.

B6: synthetic placental bikunin (7-64), first preparation of Example 2 (other)
chain: IHDFCLVSKVVGRCRASMPRWWYNVTDGSCQLFVYGGCDGNSNNYLTKEECLKKCATV
notes: also called placental bikunin fragment (7-64); KID1
For the molecule B6, the figures for the Ki (in the assay with Bovine chymotrypsin [3]; in assay [29]) were 0.6 nM and 0.4 nM, respectively.
